According to the RNAGym collection of RNA variant scans (doi:10.7554/elife.80360):

B1: Twister Ribozyme (parent)
chain: AACACUGCCAAUGCCGGUCCCAAGCCCGGAUAAAAGUGGAGGGGGCGG

Variants of: B1
Experiment: self-cleavage, relative activity (ratio to wild type); higher = more cleavage; co-transcriptional

Point of comparison: G41U G44A, self-cleavage 0.403. Against it:
- U37G G41U — lower, 0.145
- U37G G41A — lower, 0.209
- U37G G41C — lower, 0.113
- A40C G48C — lower, 0.343
- G39A G44C — lower, 0.231
- G39A G44U — lower, 0.322
- U37A G38C — higher, 0.551
- U37A G38U — lower, 0.38
- U37A G38A — higher, 0.821
- A35G A40C — lower, 0.142
- G36A C46U — higher, 0.766
- G36A C46G — higher, 0.7
- A35U G41C — lower, 0.206
- A35U G41U — higher, 0.693
- G38A G48U — higher, 1.1
- G36C G47A — lower, 0.183
- G38C G45C — higher, 0.473
- G38C G45U — higher, 0.719
- G36U G38U — lower, 0.167
- G36U G38A — higher, 0.452
- G38C G47U — higher, 0.76
- G38C G47C — lower, 0.388
- G38C G47A — higher, 0.737
- G41A G43A — lower, 0.171
- G36U G44U — lower, 0.355
- G36U G44A — higher, 0.717
- G36U G44C — lower, 0.372
- A40G — lower, 0.153
- A40U — lower, 0.158
- A40C — lower, 0.262
- U37A C46U — higher, 0.886
- U37A C46G — higher, 0.748
- G39A G42C — lower, 0.12
- A35C G38C — higher, 0.921
- A35G G45A — higher, 0.889
- A35G G45U — higher, 0.659
- G39A G45A — higher, 0.418
- A40U G44C — lower, 0.178
- A40U G44A — lower, 0.155
- A35U G38U — higher, 0.942
- A35U G38A — higher, 0.925
- G39U G41A — lower, 0.0926
- G39U G41U — lower, 0.149
- G39U G41C — lower, 0.121
- G38U A40G — lower, 0.101
- G38U A40C — lower, 0.127
- G38U A40U — lower, 0.116
- G41C G44A — lower, 0.211
- G41C G44C — lower, 0.187
- G36C G38C — lower, 0.217
- G36C G38A — higher, 0.459
- G36A G38U — lower, 0.193
- G36A G38A — lower, 0.359
- G39A G43A — lower, 0.152
- G39A G43C — lower, 0.134
- G41C G45C — lower, 0.253
- G41C G45A — lower, 0.334
- U37C G39U — lower, 0.11
- A35U G36U — higher, 0.472
- G39U G42A — lower, 0.104
- G39U G42U — lower, 0.149
- U37A G45C — lower, 0.323
- G36U G39A — lower, 0.172
- G36U G39U — lower, 0.147
- G36U G39C — lower, 0.15
- G38C G48A — higher, 0.974
- G38C G48C — higher, 0.977
- G41U G44U — lower, 0.193
- G39U G47C — lower, 0.16
- G39U G47A — lower, 0.14
- G38A G42A — lower, 0.176
- G38A G42C — lower, 0.247
- G38U G39A — lower, 0.185
- G38U G39C — lower, 0.14
- G39C G43A — lower, 0.103
- A40G C46A — lower, 0.164
- A40G C46U — lower, 0.155
- G38C G39A — lower, 0.243
- G36A G45C — lower, 0.256
- G38U C46U — higher, 0.864
- G38U C46G — higher, 0.818
- G41U G45A — higher, 0.596
- G38A G45A — higher, 0.797
- G41U C46A — higher, 0.512
- G38U G44C — higher, 0.829
- G38U G44A — higher, 0.811
- A35G U37A — higher, 0.574
- G36A A40G — lower, 0.144
- G36A A40U — lower, 0.124
- A40C G42C — lower, 0.164
- G36U G42C — lower, 0.16
- G36U G42A — lower, 0.123
- G38U G43A — lower, 0.154
- G38U G43U — lower, 0.156
- G38U G43C — lower, 0.126
- G39U G44U — lower, 0.164
- G38A G44A — higher, 0.897
- G38A G44U — higher, 0.846
- G39A G47A — lower, 0.363
- G38U G47A — higher, 0.564
- G41C C46U — lower, 0.282
- U37C G44C — higher, 0.738
- U37C G44U — higher, 0.768
- U37C G44A — higher, 0.69
- U37G G44U — higher, 0.805
- A35G G47A — higher, 0.706
- G36A G43C — lower, 0.152
- U37A G48A — higher, 0.797
- U37A G48C — higher, 0.865
- G36C C46A — lower, 0.367
- G36C C46G — higher, 0.45
- A40C G43C — lower, 0.157
- G36U G48U — higher, 0.454
- G39A G41U — lower, 0.125
- G39A G41A — lower, 0.153
- G38C A40C — lower, 0.134
- G38C A40G — lower, 0.134
- A40U G41A — lower, 0.142
- A40U G47U — lower, 0.12
- A40U G47C — lower, 0.142
- A35C G36C — lower, 0.382
- G39A A40U — lower, 0.161
- G39A A40C — lower, 0.139
- G39A A40G — lower, 0.145
- G39C G44A — lower, 0.137
- G39C G44C — lower, 0.167
- U37C G38A — lower, 0.166
- G38C G42U — lower, 0.183
- G38C G42C — lower, 0.238
- G36U G45C — lower, 0.199
- G36U G45U — lower, 0.315
- A40G G44C — lower, 0.195
- A40G G44U — lower, 0.156
- G38A G41C — lower, 0.157
- G38A G41U — lower, 0.315
- A35U G42A — lower, 0.376
- A35U G42C — higher, 0.539
- A40G G43A — lower, 0.147
- A35C G47C — higher, 0.574
- A35C G41C — lower, 0.245
- A35C G41U — higher, 0.709
- A35U A40U — lower, 0.253
- A35U A40G — lower, 0.133
- U37A G44A — higher, 0.873
- U37A G44C — higher, 0.821
- U37A G44U — higher, 0.755
- G36A G44C — higher, 0.762
- G36A G44A — higher, 0.8
- G36A G44U — higher, 0.791
- G36U U37G — lower, 0.37
- A40G G47U — lower, 0.143
- A35U — higher, 0.969
- A35G — higher, 0.864
- A40G G41C — lower, 0.133
- A40G G41A — lower, 0.141
- G36A G42U — lower, 0.128
- G36A G42C — lower, 0.168
- G36C A40U — lower, 0.149
- G38U G42A — lower, 0.129
- G38U G42U — lower, 0.12
- G38U G42C — lower, 0.177
- A35G C46U — higher, 0.854
- A35G C46G — higher, 0.868
- A35U G39C — lower, 0.104
- A40C G47C — lower, 0.193
- A40C G47A — lower, 0.19
